Article doi:10.1101/2025.09.30.679617 (bioRxiv, 2025)
Where a chain is given by its changes, count along the chain named. Ends that are not written are not given here.

T1: PfCSP junctional peptide 21 (Plasmodium falciparum, strain not …, also: biotinylated, position not given here)
T1 chain: NPDPNANPNVDPNAN

B1: Run1_Seq1 (antibody, V domains shown)
VH: QVQLVQSGTEVKKPGASVKVSCKASGYTFTSYAIHWVRQAPGQRLEWMGWIKVGNGNTRYSQKFQGRVTITRDTSASTAYMELSSLRSEDTAVYYCALLTVLTADDAFDFWGQGTMVTVSS
VL: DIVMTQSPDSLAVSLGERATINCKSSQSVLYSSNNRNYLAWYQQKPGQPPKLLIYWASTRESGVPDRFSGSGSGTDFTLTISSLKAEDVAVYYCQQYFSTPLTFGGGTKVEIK
B2: Run5_Seq1 (antibody, V domains shown)
VH: B1 VH with T9A, V53A, N55K, V68I, A79V, S84N, L102I, A104P, D106Y, F110I
VL: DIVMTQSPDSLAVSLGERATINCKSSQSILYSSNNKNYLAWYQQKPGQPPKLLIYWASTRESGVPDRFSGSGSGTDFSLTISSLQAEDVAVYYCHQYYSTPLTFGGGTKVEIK
B3: Run5_Seq2 (antibody, V domains shown)
VH: B1 VH with T9A, V53A, V68I, L102I, A104P, D106Y, F110I
VL: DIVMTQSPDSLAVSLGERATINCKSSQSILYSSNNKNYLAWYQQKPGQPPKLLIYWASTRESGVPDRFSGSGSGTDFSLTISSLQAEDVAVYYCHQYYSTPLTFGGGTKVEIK
B4: Run2_Seq1 (antibody, V domains shown)
VH: B1 VH with T9A, V53A, I70L, S84N, L102V, A104P, A107V, F110I
VL: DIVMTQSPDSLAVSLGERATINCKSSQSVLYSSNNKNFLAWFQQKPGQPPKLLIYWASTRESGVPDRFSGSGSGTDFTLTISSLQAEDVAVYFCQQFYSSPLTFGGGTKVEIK
B5: Run2_Seq2 (antibody, V domains shown)
VH: B1 VH with T9A, S31N, V53A, G66D, I70L, Y80F, L102V, A104P, F110I, M116L
VL: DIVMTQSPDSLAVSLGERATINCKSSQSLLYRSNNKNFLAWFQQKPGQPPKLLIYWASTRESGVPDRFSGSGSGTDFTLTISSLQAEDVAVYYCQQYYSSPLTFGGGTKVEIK
B6: Run3_Seq1 (antibody, V domains shown)
VH: B1 VH with T9A, K12R, S31T, V53A, G54D, S75F, L102V, A104P, A107T, F110I
VL: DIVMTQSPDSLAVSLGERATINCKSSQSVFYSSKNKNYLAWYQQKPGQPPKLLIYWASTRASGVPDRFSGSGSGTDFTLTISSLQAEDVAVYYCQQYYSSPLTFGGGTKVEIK
B7: Run7_Seq2 (antibody, V domains shown)
VH: B1 VH with T9A, I34M, M48L, V53A, K63R, R72G, S84R, L102I, A104P, F110I
VL: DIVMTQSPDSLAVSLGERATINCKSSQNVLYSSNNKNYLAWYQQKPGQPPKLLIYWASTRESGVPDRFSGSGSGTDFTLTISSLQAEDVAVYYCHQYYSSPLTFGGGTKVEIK
B8: Run7_Seq1 (antibody, V domains shown)
VH: B1 VH with T9A, S31K, I34M, M48L, V53A, K63R, G66D, L102I, A104P, F110I
VL: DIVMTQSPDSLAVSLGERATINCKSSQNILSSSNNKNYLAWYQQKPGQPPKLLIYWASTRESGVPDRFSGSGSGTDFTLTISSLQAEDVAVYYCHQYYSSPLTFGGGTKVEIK
B9: Run4_Seq2 (antibody, V domains shown)
VH: B1 VH with I34V, V53A, A79V, L102I, A104P, F110V
VL: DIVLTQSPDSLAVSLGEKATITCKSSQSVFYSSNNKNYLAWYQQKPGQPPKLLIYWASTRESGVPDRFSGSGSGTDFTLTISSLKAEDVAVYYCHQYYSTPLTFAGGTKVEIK
B10: Run1_Seq2 (antibody, V domains shown)
VH: B1 VH with S77N, A104P
VL: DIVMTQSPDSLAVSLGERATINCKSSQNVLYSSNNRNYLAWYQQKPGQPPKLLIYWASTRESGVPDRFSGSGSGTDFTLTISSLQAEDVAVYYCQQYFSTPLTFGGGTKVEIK
B11: Run4_Seq1 (antibody, V domains shown)
VH: B1 VH with V53A, A79V, L102I, A104P, F110V
VL: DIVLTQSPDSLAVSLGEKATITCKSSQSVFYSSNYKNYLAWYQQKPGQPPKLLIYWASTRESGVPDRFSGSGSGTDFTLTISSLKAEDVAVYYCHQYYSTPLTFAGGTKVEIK
B12: SFR6 (antibody, V domains shown)
VH: QVHLVQSGAEVKKPGASVKVSCKASGYTFSSYAIHWVRQAPGQRLDWMGWIKGGNGDTRYSETFQDRVTISRDTSATTVYMELSSLRSEDTAMYFCALLTVIRRDDTFDIWGQGTMVTVSS
VL: DIVLTQSPDSLAVSLGERATINCKSSQNIFFNSNKKNYLAWYQQKPRQPPKLLFYWASTRESGVPDRFSGSGSGTDFTLTISSLQAEDVAVYYCHQFYSTPLTFGGGTKVEIK
B13: Run6_Seq1 (antibody, V domains shown)
VH: QVQLVQSGAEVRKPGASVKVSCKASGYTFTRYAIHWVRQAPGQRLEWMGWIKAGNGNTRYSQKFQGRVSIIRDTSASTVYMDLSGLRSEDTAVYYCALLTVITPDDAFDIWGQGTMVTVSS
VL: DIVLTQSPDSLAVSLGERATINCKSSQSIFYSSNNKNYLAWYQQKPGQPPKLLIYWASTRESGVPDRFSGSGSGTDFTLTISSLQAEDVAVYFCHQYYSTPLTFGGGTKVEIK
B14: Run6_Seq2 (antibody, V domains shown)
VH: B13 VH with K63N, V79A
VL: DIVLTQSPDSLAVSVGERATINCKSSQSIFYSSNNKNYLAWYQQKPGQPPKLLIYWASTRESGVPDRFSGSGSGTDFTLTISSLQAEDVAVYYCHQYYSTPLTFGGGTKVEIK
B15: Run3_Seq2 (antibody, V domains shown)
VH: QVQLVQSGAEVRKPGASVKVSCKASGYTFTTYAIHWVRQAPGQRLEWMGWIKGGNGDTRYSQKFQGRLTITRDTFASTAYMELSSLRSEDTAVYYCALLTVVTPDDTFDIWGQGTMVTVSS
VL: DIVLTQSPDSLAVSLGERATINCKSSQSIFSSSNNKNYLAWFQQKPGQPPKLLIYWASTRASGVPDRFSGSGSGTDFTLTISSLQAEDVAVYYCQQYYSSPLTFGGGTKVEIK
B16: SFR1 (antibody, V domains shown)
VH: QVHLVQSGAEVKKPGASVKVSCKASGYTFSRYAIHWVRQAPGQRLEWMGWIKGGNGDTRYSQKFQDRVTITRDTSASTVYMDLSSLRSEDTAVYYCALLTVIRKDDTFDVWGQGTMVTVSS
VL: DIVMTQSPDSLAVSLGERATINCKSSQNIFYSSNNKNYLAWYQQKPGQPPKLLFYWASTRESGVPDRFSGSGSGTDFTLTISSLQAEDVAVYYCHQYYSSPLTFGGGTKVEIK
B17: SFR4 (antibody, V domains shown)
VH: B16 VH with R31T, D66G, D82E, K104L, D106E
VL: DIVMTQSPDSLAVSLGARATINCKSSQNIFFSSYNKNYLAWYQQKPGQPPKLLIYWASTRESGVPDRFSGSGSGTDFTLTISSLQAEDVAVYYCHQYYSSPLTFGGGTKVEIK
B18: SFR2 (antibody, V domains shown)
VH: B16 VH with D82E, Y95F
VL: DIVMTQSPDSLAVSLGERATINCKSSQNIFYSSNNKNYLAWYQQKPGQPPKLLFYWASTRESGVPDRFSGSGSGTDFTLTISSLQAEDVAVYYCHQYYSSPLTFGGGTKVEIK

Biological target: T1, PfCSP junctional peptide 21

Row | Binder | binding result
1 | B1 | binds
2 | B2 | binds
3 | B3 | binds
4 | B4 | binds
5 | B5 | binds
6 | B6 | binds
7 | B7 | binds
8 | B8 | binds
9 | B9 | binds
10 | B10 | binds
11 | B11 | binds
12 | B12 | binds
13 | B13 | binds
14 | B14 | binds
15 | B15 | binds
16 | B16 | binds
17 | B17 | binds
18 | B18 | binds
